# Experimental data: patent US20090068744A1, “VITREOUS CELL LINE” (SENJU PHARMACEUTICAL CO., LTD., priority 2006, published 2009)
# B1: PDGF-BB: cytokine used to stimulate the vitreous cell line (10 ng/ml) (protein, UniProt P01127 82-190, looked up)
# Platelet-derived growth …: SLGSLTIAEPAMIAECKTRTEVFEISRRLIDRTNANFLVWPPCVEVQRCSGCCNNRNVQCRPTQVQLRPVQVRKIEIVRKKPIFKKATVTLEDHLACKCETVAAARPVT
# B2: IL-1α: cytokine used to stimulate the vitreous cell line (10 ng/ml) (protein, UniProt P01583 113-271, looked up)
# Interleukin-1 alpha: SAPFSFLSNVKYNFMRIIKYEFILNDALNQSIIRANDQYLTAAALHNLDEAVKFDMGAYKSSKDDAKITVILRISKTQLYVTAQDEDQPVLLKEMPEIPKTITGSETNLLFFWETHGTKNYFTSVAHPNLFIATKQDYWVCLAGGPPSITDFQILENQA
# Experiments:
# [1] = system: VEGF mRNA expression by a vitreous cell line; experiment: VEGF mRNA expression by RT-PCR after cytokine stimulation of the vitreous cell line; type: cell-based, swine; settings: for VEGF mRNA expression level: cytokine 10 ng/ml, up to 48 hours, FIG. 7, FIG. 9; for VEGF mRNA level as compared to the mRNA level of non-stimulation control: RT-PCR
# Procedure: (§1) Changes of VEGF expression due to cytokine stimulation in the vitreous cell line established in Example 1 were examined. The expression of VEGF at an mRNA level was examined by RT-PCR, and the expression at a protein level was examined by ELISA.
# To be specific, when the vitreous cell line reached 50-60% confluent, the medium for the cells was exchanged with DMEM containing 1% bovine serum. […] Total RNA was extracted from the stimulated cells, cDNA was synthesized, and PCR was conducted using VEGF primers. The medium of the stimulated cells was used for ELISA. Since an appropriate antibody to swine VEGF is not available, VEGF protein concentration was measured by ELISA using an antibody to human VEGF, and the result was calculated as a reference value led from a human VEGF standard product. PCR was conducted using TOYOBO KOD plus kit and Gene PCR System 9700 (Applied Biosystem). The conditions of PCR were as follows:
# (§2) 95° C. 120 seconds; (95° C. 15 seconds, 62° C. 30 seconds, 68° C. 30 seconds)×30 cycles; 68° C. 90 seconds. ELISA was entrusted to Mitsubishi BCL.
# [2] = system: VEGF protein expression by a vitreous cell line; experiment: VEGF protein in culture supernatant by ELISA after cytokine stimulation; type: cell-based, swine; settings: cytokine 10 ng/ml; ELISA with antibody to human VEGF, relative values; FIG. 8
# Procedure: as §1
# To be specific, when the vitreous cell line reached 50-60% confluent, the medium for the cells was exchanged with DMEM containing 1% bovine serum. After culturing for 24 hours, the cells were stimulated with cytokine (IL-1α, IL-1β, TNFα, PDGF-AA, PDGF-BB or TGFβ) (10 ng/ml) for 48 hours (FIG. 6). Total RNA was extracted from the stimulated cells, cDNA was synthesized, and PCR was conducted using VEGF primers. The medium of the stimulated cells was used for ELISA. Since an appropriate antibody to swine VEGF is not available, VEGF protein concentration was measured by ELISA using an antibody to human VEGF, and the result was calculated as a reference value led from a human VEGF standard product. PCR was conducted using TOYOBO KOD plus kit and Gene PCR System 9700 (Applied Biosystem). The conditions of PCR were as follows:
# as §2
molecule,measurement,setting,value
B1,VEGF mRNA expression level,[1],a significant change in the VEGF mRNA expression level was not observed
B2,VEGF mRNA expression level,[1],increased with time
same,VEGF mRNA level as compared to the mRNA level of non-stimulation control,[1]; in 12 hours,≥ 2 fold
same,VEGF mRNA level as compared to the mRNA level of non-stimulation control,[1]; in 48 hours,≥ 2.5 fold
same,concentration of VEGF protein in the culture supernatant,[2],increased with time
